Laboratory results from US20240132578A1 (published 2024).
Numbering of substitutions follows the chain as printed.

B1: B cell culture supernatant of well 1460 G14 (source of antibody 1460_G14 (PGG14)) (antibody, V domains shown)
VH: QVLLVQSGTEVKKPGSSVKVSCQASGGAFSSYAFSWVRQAPGQGLEWMGMITPVFGETKYAPRFQGRLTLTAEESLSTTYMELRSLTSDDTAFYYCTRDRRVVPMATDNWLDPWGQGTLVTVSS
VL: DIQLTQSPSSLSASVGDRVTVTCRASQTIHTYLNWYQQIPGKAPKLLIYGASTLQSGVPSRFSGSGSGTDFTLTINSLQPEDFATYYCQQSYSTPRTFGQGTRLDIK
B2: B cell culture supernatant of well 1443 C16 (source of antibody 1443_C16 (PG16) (TCN-116)) (antibody, V domains shown)
VH: QEQLVESGGGVVQPGGSLRLSCLASGFTFHKYGMHWVRQAPGKGLEWVALISDDGMRKYHSDSMWGRVTISRDNSKNTLYLQFSSLKVEDTAMFFCAREAGGPIWHDDVKYYDFNDGYYNYHYMDVWGKGTTVTVSS
VL: QSALTQPASVSGSPGQTITISCNGTSSDVGGFDSVSWYQQSPGKAPKVMVFDVSHRPSGISNRFSGSKSGNTASLTISGLHIEDEGDYFCSSLTDRSHRIFGGGTKVTVL
B3: B cell culture supernatant of well 1456 P20 (source of antibody 1456_P20 (PG20)) (antibody, V domains shown)
VH: QVRLVQSGPEVKKPGSSVTVSCQASGGTFSSYAFTWVRQAPGQGLEWLGMVTPIFGEAKYSQRFEGRVTITADESTSTTSIELRGLTSEDTAIYYCARDRRAVPIATDNWLDPWGQGTLVTVSS
VL: B1 VL with T20S, V21I, H30N, T31N, I39T, T53N, S56N, N76S, Y92F
B4: B cell culture supernatant of well 1495 C14 (source of antibody 1495_C14 (PGC14)) (antibody, V domains shown)
VH: DGHLVQSGVEVKKTGATVKISCKVSGYSFIDYYLHWVQRAPGKGLEWVGLIDPENGEARYAEKFQGRVTIIADTSIDTGYMEMRSLKSEDTAVYFCAAGAVGADSGSWFDPWGQGTLVTVSS
VL: SYELTQPPSVSVSPGQTASITCSGSKLGDKYVSWYQLRPGQSPILVMYENDRRPSGIPERFSGSNSGDTATLTISGTQALDEADFYCQAWETTTTTFVFFGGGTQLTVL
B5: B cell culture supernatant of well 1496 C9 (source of antibody 1496_C09 (PG9) (TCN-109)) (antibody, V domains shown)
VH: QRLVESGGGVVQPGSSLRLSCAASGFDFSRQGMHWVRQAPGQGLEWVAFIKYDGSEKYHADSVWGRLSISRDNSKDTLYLQMNSLRVEDTATYFCVREAGGPDYRNGYNYYDFYDGYYNYHYMDVWGKGTTVTVSS
VL: QSALTQPASVSGSPGQSITISCNGTSNDVGGYESVSWYQQHPGKAPKVVIYDVSKRPSGVSNRFSGSKSGNTASLTISGLQAEDEGDYYCKSLTSTRRRVFGTGTKLTVL
B6: 1456_P20 (PG20) (antibody, human IgG1, kappa, V domains shown)
VH: B3 VH
VL: DIQLTQSPSSLSASVGDRVSITCRASQTINNYLNWYQQTPGKAPKLLIYGASNLQNGVPSRFSGSGSGTDFTLTISSLQPEDFATYYCQQSFSTPRTFGQGTRLDIKR
B7: 1460_G14 (PGG14) (antibody, human IgG1, kappa, V domains shown)
VH: B1 VH
VL: B6 VL with S20T, I21V, N30H, N31T, T39I, N53T, N56S, S76N, F92Y
B8: 1495_C14 (PGC14) (antibody, human IgG1, lambda, V domains shown)
VH: B4 VH
VL: SYELTQPPSVSVSPGQTASITCSGSKLGDKYVSWYQLRPGQSPILVMYENDRRPSGIPERFSGSNSGDTATLTISGTQALDEADFYCQAWETTTTTFVFFGGGTQLTVLG
B9: 1456_P20 (PG20) (antibody, human IgG1, kappa, V domains shown)
VH: B3 VH
VL: B6 VL
B10: 1460_G14 (PGG14) (antibody, human IgG1, kappa, V domains shown)
VH: B1 VH
VL: B6 VL with S20T, I21V, N30H, N31T, T39I, N53T, N56S, S76N, F92Y
B11: 1495_C14 (PGC14) (antibody, human IgG1, lambda, V domains shown)
VH: B4 VH
VL: B8 VL

Molecular target: T1, Recombinant gp41 generated with sequences derived from HxB2 clone of HIV-1, expressed in Pichia pastoris (HIV-1 clone HxB2, UniProt P04578 541-682)
T1 construct: domain: gp41; also called gp41HxB2
Assay: ELISA, B cell culture supernatant on directly immobilised recombinant gp41

Row | Binder | binding result
1 | B1 | no binding
2 | B2 | no binding
3 | B3 | no binding
4 | B4 | no binding
5 | B5 | no binding

Molecular target: T2, recombinant gp41HxB2 (HIV-1 clone HxB2, UniProt P04578 541-682)
T2 construct: domain: gp41
Assay: ELISA on recombinant gp41

Row | Binder | binding result
6 | B6 | no binding
7 | B7 | no binding
8 | B8 | no binding

Molecular target: HIV-1 92TH021 Env (CRF01_AE pseudovirus) (HIV-1)
Assay: cell-based or functional assay

Row | Binder | IC50 (µg/mL), pseudovirus neutralization
9 | B9 | > 50 µg/mL
10 | B10 | > 50 µg/mL
11 | B11 | > 50 µg/mL

Molecular target: HIV-1 IAVI-C18 Env (clade C pseudovirus) (HIV-1)
Assay: cell-based or functional assay

Row | Binder | IC50 (µg/mL), pseudovirus neutralization
12 | B9 | > 50 µg/mL
13 | B10 | > 50 µg/mL
14 | B11 | > 50 µg/mL

Molecular target: HIV-1 92UG005 Env (clade D pseudovirus) (HIV-1)
Assay: cell-based or functional assay

Row | Binder | IC50 (µg/mL), pseudovirus neutralization
15 | B9 | > 50 µg/mL
16 | B10 | > 50 µg/mL
17 | B11 | > 50 µg/mL

Molecular target: HIV-1 93IN905 Env (clade C pseudovirus) (HIV-1)
Assay: cell-based or functional assay

Row | Binder | IC50 (µg/mL), pseudovirus neutralization
18 | B9 | > 50 µg/mL
19 | B10 | > 50 µg/mL
20 | B11 | > 50 µg/mL

Molecular target: HIV-1 93UG077 Env (clade A pseudovirus) (HIV-1)
Assay: cell-based or functional assay

Row | Binder | IC50 (µg/mL), pseudovirus neutralization
21 | B9 | > 50 µg/mL
22 | B10 | > 50 µg/mL
23 | B11 | > 50 µg/mL

Molecular target: HIV-1 APV-17 Env (clade B pseudovirus) (HIV-1)
Assay: cell-based or functional assay

Row | Binder | IC50 (µg/mL), pseudovirus neutralization
24 | B9 | > 50 µg/mL
25 | B10 | > 50 µg/mL
26 | B11 | > 50 µg/mL

Molecular target: HIV-1 IAVI-C22 Env (clade C pseudovirus) (HIV-1)
Assay: cell-based or functional assay

Row | Binder | IC50 (µg/mL), pseudovirus neutralization
27 | B9 | > 50 µg/mL
28 | B10 | > 50 µg/mL
29 | B11 | > 50 µg/mL

Molecular target: HIV-1 APV-6 Env (clade B pseudovirus) (HIV-1)
Assay: cell-based or functional assay

Row | Binder | IC50 (µg/mL), pseudovirus neutralization
30 | B9 | 25.8 µg/mL
31 | B10 | > 50 µg/mL
32 | B11 | 7.41 µg/mL

Molecular target: aMLV envelope (negative control pseudovirus)
Assay: cell-based or functional assay

Row | Binder | IC50 (µg/mL), pseudovirus neutralization
33 | B9 | > 50 µg/mL
34 | B10 | > 50 µg/mL
35 | B11 | > 50 µg/mL

Molecular target: HIV-1 IAVI-C3 Env (clade C pseudovirus) (HIV-1)
Assay: cell-based or functional assay

Row | Binder | IC50 (µg/mL), pseudovirus neutralization
36 | B9 | > 50 µg/mL
37 | B10 | > 50 µg/mL
38 | B11 | 9.5 µg/mL

Molecular target: HIV-1 92UG024 Env (clade D pseudovirus) (HIV-1)
Assay: cell-based or functional assay

Row | Binder | IC50 (µg/mL), pseudovirus neutralization
39 | B9 | > 50 µg/mL
40 | B10 | > 50 µg/mL
41 | B11 | > 50 µg/mL

Molecular target: HIV-1 APV-13 Env (clade B pseudovirus) (HIV-1)
Assay: cell-based or functional assay

Row | Binder | IC50 (µg/mL), pseudovirus neutralization
42 | B9 | > 50 µg/mL
43 | B10 | > 50 µg/mL
44 | B11 | > 50 µg/mL

Molecular target: HIV-1 94UG103 Env (clade A pseudovirus) (HIV-1)
Assay: cell-based or functional assay

Row | Binder | IC50 (µg/mL), pseudovirus neutralization
45 | B9 | > 50 µg/mL
46 | B10 | > 50 µg/mL
47 | B11 | > 50 µg/mL

Molecular target: HIV-1 92RW020 Env (clade A pseudovirus) (HIV-1)
Assay: cell-based or functional assay

Row | Binder | IC50 (µg/mL), pseudovirus neutralization
48 | B9 | 50 µg/mL
49 | B10 | > 50 µg/mL
50 | B11 | 28.6 µg/mL

Molecular target: HIV-1 JRCSF Env (clade B pseudovirus) (HIV-1, UniProt P20871 32-848)
Assay: cell-based or functional assay

Row | Binder | IC50 (µg/mL), pseudovirus neutralization
51 | B9 | > 50 µg/mL
52 | B10 | > 50 µg/mL
53 | B11 | > 50 µg/mL

Molecular target: HIV-1 CMU02 Env (CRF01_AE pseudovirus) (HIV-1)
Assay: cell-based or functional assay

Row | Binder | IC50 (µg/mL), pseudovirus neutralization
54 | B9 | > 50 µg/mL
55 | B10 | > 50 µg/mL
56 | B11 | > 50 µg/mL

Molecular target: HIV-1 92BR020 Env (clade B pseudovirus) (HIV-1)
Assay: cell-based or functional assay

Row | Binder | IC50 (µg/mL), pseudovirus neutralization
57 | B9 | > 50 µg/mL
58 | B10 | > 50 µg/mL
59 | B11 | 0.64 µg/mL
